Assays:
[1] = target: mink ACE2 with a C-terminal FLAG tag, on transduced HeLa cells (mink (Neovison vison)); experiment: flow cytometry on cells
[2] = target: human ACE2 with a C-terminal FLAG tag, on transduced HeLa cells (human) (UniProt Q9BYF1); experiment: flow cytometry on cells

WT S1 domain of SARS-CoV-2 spike C-terminally fused with a His tag (domain or fragment)
percent of ACE2-expressing cells positive for S1-Fc [1]: 1.2%
percent of ACE2-expressing cells positive for S1-Fc [2]: 86.5%

— PMC8601601
